{"source": "patent US20130022605A1", "about": "(published 2013)", "binders": {"B1": {"name": "TAR2m-19 (other)", "chain": "EVQLLESGGGLVQPGGSLRLSCAASGFTFRKYDMHWVRQAPGKGLEWVSTISPSGRRTYYADSVKGRFTISRDNSKNTLYLQMNSLRAEDTAVYYCAENLDQVLSFDYWGQGTLVTVSS", "notes": "anti-mouse TNFR1 dAb"}, "B2": {"name": "TAR2h-35-4 (other)", "chain": "EVQLLESGGGLVQPGGSLRLSCAASGFTFDAYNMFWFRQAPGKGPEWVSAIGPSGRETYYADSVKGRFTITRDNSKNTLYLQMNSLRAEDTAVYYCAKRYPDFDYWGQGTLVTVSS", "notes": "anti-human TNFR1 dAb"}, "B3": {"name": "TAR2m-20 (other)", "chain": "EVQLLESGGGLVQPGGSLRLSCAASGFTFGSYSMSWVRQAPGKGLEWVSGIDNGGHSTYYADSVKGRFTISRDNSKNTLYLQMNSLRAEDTAVYYCAKRSSGLPFPFDYWGQGTLVTVSS", "notes": "anti-mouse TNFR1 dAb"}, "B4": {"name": "TAR2m-21-17 (other)", "chain": "EVQLLESGGGLVQPGGSLRLSCAASGFTFTRYSMGWVRQAPGKGLEWVSRIDSYGRGTYYADSVKGRFTISRDNSKNTLYLQMNSLRAEDTAVYYCAKISQFGSNAFDYWGQGTVVTVSS"}, "B5": {"name": "TAR2h-131-8 (other)", "chain": "EVQLLESGGGLIQPGGSLRLSCAASGFTFAHETMVWVRQAPGKGLEWVSHIDRVGQDTYYADSVKGRFTISRDNSKNTLYLQMNSLRAEDTAVYYCAKLPKRGPWFDYRGQGTLVTVSS", "notes": "anti-human TNFR1 dAb"}, "B6": {"name": "HEL4 (other)", "VH": "EVQLLESGGGLVQPGGSLRLSCAASGFRISDEDMGWVRQAPGKGLEWVSSIYGPSGSTYYADSVKGRFTISRDNSKNTLYLQMNSLRAEDTAVYYCASALEPLSEPLGFWGQGTLVTVSS", "notes": "VH dAb"}, "B7": {"name": "TAR2m21-23 dimer (other)", "VH": "EVQLLESGGGLVQPGGSLRLSCAASGFTFNRYSMGWLRQAPGKGLEWVSRIDSYGRGTYYEDPVKGRFSISRDNSKNTLYLQMNSLRAEDTAVYYCAKISQFGSNAFDYWGQGTQVTVSSC"}, "B8": {"name": "TAR2h-15-8 (other)", "chain": "EVRLLESGGGLVQPGGSLRLSCVASGFTFGKSTMTWVRQAPGKGLEWVSHISDDGNSTYYADSVKGRFTISRDNSKNTLYLQMNSLRAEDTAVYYCAKVPILAPRNLFDYWGQGTLVTVSS", "notes": "anti-human TNFR1 dAb"}}, "key": {"[1]": {"target": "T1, mouse TNFR1 on L929 cells (mouse, UniProt P25118 30-454)", "T1 sequence (looked up)": "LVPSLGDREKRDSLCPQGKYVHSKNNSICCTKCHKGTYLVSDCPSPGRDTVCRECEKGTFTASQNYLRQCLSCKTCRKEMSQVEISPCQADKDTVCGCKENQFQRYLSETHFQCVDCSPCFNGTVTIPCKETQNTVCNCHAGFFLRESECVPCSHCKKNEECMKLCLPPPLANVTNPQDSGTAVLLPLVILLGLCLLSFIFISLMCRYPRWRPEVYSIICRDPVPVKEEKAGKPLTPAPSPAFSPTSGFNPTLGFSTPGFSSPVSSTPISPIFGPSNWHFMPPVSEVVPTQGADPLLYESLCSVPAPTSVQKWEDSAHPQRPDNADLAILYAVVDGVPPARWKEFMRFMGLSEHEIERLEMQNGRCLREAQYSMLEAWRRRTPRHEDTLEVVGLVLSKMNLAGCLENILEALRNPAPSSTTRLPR", "assay": "cell-based or functional assay"}, "mouse TNFR1": {"target": "T2, mouse TNFR1 (mouse, UniProt P25118 30-212, limits assumed)", "T2 construct": "also called murine TNFR1; biotinylated murine TNFR1", "T2 sequence": "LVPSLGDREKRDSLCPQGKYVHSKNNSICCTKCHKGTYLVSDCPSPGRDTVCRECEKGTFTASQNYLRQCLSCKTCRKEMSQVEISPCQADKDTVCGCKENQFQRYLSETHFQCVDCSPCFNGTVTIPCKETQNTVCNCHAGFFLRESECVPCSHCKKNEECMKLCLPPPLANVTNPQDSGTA", "assay": "receptor binding assay"}, "[2]": {"target": "T3, human TNFR1 (human p55 TNF receptor) (human, UniProt P19438 30-211, limits assumed)", "T3 construct": "also called TAR2; human TNF receptor 1", "T3 sequence": "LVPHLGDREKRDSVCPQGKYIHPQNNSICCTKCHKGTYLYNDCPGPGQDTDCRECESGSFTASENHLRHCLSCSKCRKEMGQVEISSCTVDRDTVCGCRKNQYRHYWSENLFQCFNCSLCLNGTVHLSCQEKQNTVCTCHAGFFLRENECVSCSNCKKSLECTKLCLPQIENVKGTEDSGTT", "assay": "SPR on biotinylated TNFR1, competition with chimeric TNFR1", "procedure": "This example describes a method that was used to determine the domain specificity of dAbs that bind TNFR1. […] If the dAb is pre-incubated and equilibrated with a chimeric molecule that comprises the domain(s) of TNFR1 that the particular dAb binds, then flow of this mixture over the TNFR1 surface will produce a smaller SPR signal relative to the dAb alone.\nOnce the optimum anti-TNFR1 dAb concentration was determined, anti-TNFR1 dAb/chimeric TNFR1 mixes were set up. Mixes were set up such that the final concentration of anti-TNFR1 dAb was identical to the optimal concentration determined previously. Reactions were typically set up in 100 μl volumes containing 50 microliters of a 2× concentrate of anti-TNFR1 dAb, 40 microliters of Biacore buffer and 10 microliters of neat, purified chimeric protein. Typical concentrations for the final mix were about 10-100 μM of chimeric protein and about 10-100 nM anti-TNFR1 dAb. Mixtures were allowed to equilibrate for 30 minutes at room temperature."}, "hen egg lysozyme": {"target": "T4, hen egg lysozyme (hen, UniProt P00698 19-147)", "T4 construct": "also called HEL", "T4 sequence (P00698 19-147)": "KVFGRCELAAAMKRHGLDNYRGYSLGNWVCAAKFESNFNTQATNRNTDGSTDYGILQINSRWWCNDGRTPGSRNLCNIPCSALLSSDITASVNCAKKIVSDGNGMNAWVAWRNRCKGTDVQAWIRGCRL", "assay": "selection from a dAb library"}, "[3]": {"target": "T1, mouse TNFR1 on L929 cells", "assay": "cell-based or functional assay", "remark": "listed apart in the source"}}}
{"binder": "B1", "values": [{"measurement": "L929 Cell Assay, Activity (IC50)", "setting": "[1]", "value": 10000, "unit": "nM"}, {"measurement": "IC50", "setting": "mouse TNFR1", "value": 2000, "unit": "nM"}]}
{"binder": "B2", "values": [{"measurement": "binding result", "setting": "[2]", "value": "binds"}]}
{"binder": "B3", "values": [{"measurement": "IC50", "setting": "mouse TNFR1", "value": 150, "unit": "nM"}]}
{"binder": "B4", "values": [{"measurement": "L929 Cell Assay, Activity (IC50)", "setting": "[1]", "value": 300, "unit": "nM"}]}
{"binder": "B5", "values": [{"measurement": "binding result", "setting": "[2]", "value": "binds"}]}
{"binder": "B6", "values": [{"measurement": "binding result", "setting": "hen egg lysozyme", "value": "binds"}]}
{"binder": "B7", "values": [{"measurement": "fold decrease in ND50 of the dimer against the monomer", "setting": "[3]", "value": "~10", "unit": "fold"}]}
{"binder": "B8", "values": [{"measurement": "binding result", "setting": "[2]", "value": "binds"}]}
